What all share (conditions): modification not given
Experiment [1] addresses MDM2 (synMDM2) 25-109 (Homo sapiens), Q00987. Kind of experiment: SPR direct.
The target of experiment [2] is T1, MDMX (synMDMX) 24-108 (Homo sapiens), O15151.
T1 chain: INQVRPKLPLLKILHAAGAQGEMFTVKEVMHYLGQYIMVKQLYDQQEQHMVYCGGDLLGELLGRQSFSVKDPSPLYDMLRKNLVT
Kind of experiment: SPR. Background: SPR reads the build-up and loss of mass on a sensor chip optically.

The target in experiment [3] is MDM2 (synMDM2) 25-109 (Homo sapiens), Q00987. Kind of experiment: SPR.
Experiment [4] has the same target. Kind of experiment: SPR. This is another data set of the same source.

A word on the Kd: it is a measure of binding affinity in units of concentration.

MDM2 (synMDM2) 25-109 (Homo sapiens), Q00987, sequence (Q00987 25-109): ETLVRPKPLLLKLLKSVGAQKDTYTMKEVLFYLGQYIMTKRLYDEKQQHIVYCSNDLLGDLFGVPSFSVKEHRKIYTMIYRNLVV

In experiment [1], CYSFDCLWKCLAMGFRRGKCRRRKCKC [stoppin-2] gave a dissociation constant (Kd) of 493 nM.

For the molecule CYSFDCLWKCLAMGFSSGKCINSKCKC [stoppin-1], the figures for the Kd in experiment [2], in experiment [3] and in experiment [4] were 994 nM, 790 nM and 320 nM, respectively.
